The supplement of paper PMC7877785
± gives the uncertainty stated by the source.

Experiment: self-splicing fitness, log relative to wild type (ln ratio); higher = more splicing; Tetrahymena group I intron in knt gene, E. coli kanamycin selection, DiMSum; sequences stand for … in CUCUCU…GGAGGGAAAAGUUAUCAGGCAUGCACCUGGUAGCUAGUCUUUAAACCAAUAGAUUGCAUCGGUUUAAAAGGCAAGACCGUCAAAUUGCGGGAAAGGGGUCAACAGCCGUUCAGUACCAAGUCUCAGGGGAAACUUUGAGAUGGCCUUGCAAAGGGUAUGGUAAUAAGCUGACGGACAUGGUCCUAACCACGCAGCCAAGUCCUAAGUCAACAGAUCUUCUGUUGAUAUGGAUGCAGUUCACAGACUAAAUGUCGGUCGGGGAAGAUGUAUUCUUCUCAUAAGAUAUAGUCGGACCUCUCCUUAAUGGGAGCUAGCGGAUGAAGUGAUGCAACACUGGAGCCGCUGGGAACUAAUUUGUAUGCGAAAGUAUAUUGAUUAGUUUUGGAGUACUCGUGGUCG
Method in brief: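 Library with all eight P1ex-region intron nucleotides randomised, intron inside the knt kanamycin-resistance gene on pET-22b(+), in E. coli BL21(DE3). Cells grew overnight at 37°C or 30°C on LB agar with or without 25 μg/mL kanamycin (plus 100 μg/mL carbenicillin, 50 μM IPTG, 0.2% rhamnose), in six replicate transformations. Pooled colonies were amplicon-sequenced on Illumina HiSeq 2500. DiMSum fitness is the error-weighted combination of wild-type-normalised replicate fold changes, kanamycin versus none.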

Row | Sequence | self-splicing fitness (ln) (37 °C) | self-splicing fitness (ln) (30 °C)
1 | AGCGAGCAAUAUUACGGUAG | -1.73 ± 0.22 | 
2 | AGCGAGCAAUAUUACGUAGC | -0.813 ± 0.27 | -2.83 ± 0.26
3 | AGCGAGCAAUAUUACGUAGG | -2.17 ± 0.22 | -3.4 ± 0.35
4 | AGCGAGCAAUAUUACGUAUA | -2.18 ± 0.29 | -3.86 ± 0.37
5 | AGCGAGCAAUAUUACGUCAG | -2.58 ± 0.29 | -4.3 ± 0.36
6 | AGCGAGCAAUAUUACGUCCA | -1.1 ± 0.15 | -2.59 ± 0.15
7 | AGCGAGCAAUAUUACGUCGU | -2.18 ± 0.36 | -3.82 ± 0.43
8 | AGCGAGCAAUAUUACGUCUA | -2 ± 0.11 | -1.92 ± 0.13
9 | AGCGAGCAAUAUUACGUCUU | -2.08 ± 0.18 | -2.73 ± 0.16
10 | AGCGAGCAAUAUUACGUUUC | -2.77 ± 0.18 | -4.07 ± 0.21
11 | AGCUAGCAAUAUUACGAAAC | -1.95 ± 0.43 | 
12 | AGCUAGCAAUAUUACGAAAU | -1.83 ± 0.2 | -2.4 ± 0.15
13 | AGCUAGCAAUAUUACGACUU | -0.0618 ± 0.12 | -0.59 ± 0.11
14 | AGCUAGCAAUAUUACGAUCG | -0.102 ± 0.18 | -1.81 ± 0.16
15 | AGCUAGCAAUAUUACGAUGG | -2.05 ± 0.28 | -3.87 ± 0.27
16 | AGCUAGCAAUAUUACGCACG | -0.0907 ± 0.18 | -0.605 ± 0.16
17 | AGCUAGCAAUAUUACGCAUA | -1.22 ± 0.14 | -2.4 ± 0.12
18 | AGCUAGCAAUAUUACGCAUU | -1.48 ± 0.14 | -3 ± 0.19
19 | AGCUAGCAAUAUUACGCCCG | -0.486 ± 0.32 | 
20 | AGCUAGCAAUAUUACGCGUA | -0.709 ± 0.18 | -3.08 ± 0.26
21 | AGCUAGCAAUAUUACGGGAA | -1.67 ± 0.22 | -3.13 ± 0.28
22 | AGCUAGCAAUAUUACGGGCG | -0.799 ± 0.15 | -0.507 ± 0.098

Row | Sequence | self-splicing fitness (ln) (37 °C) | self-splicing fitness (ln) (30 °C)
23 | AGCUAGCAAUAUUACGGUGA | -0.51 ± 0.2 | -1.81 ± 0.2
24 | AGCUAGCAAUAUUACGGUGU | -1.22 ± 0.11 | -2.56 ± 0.11
25 | AGCUAGCAAUAUUACGUAUA | -2.12 ± 0.23 | -2.28 ± 0.15
26 | AGCUAGCAAUAUUACGUCCA | -0.378 ± 0.11 | -1.52 ± 0.12
27 | AGCUAGCAAUAUUACGUCUG | -1.56 ± 0.13 | -1.88 ± 0.097
28 | AGCUAGCAAUAUUACGUGGC | -2.27 ± 0.26 | 
29 | AGCUAGCAAUAUUACGUUUG | -0.747 ± 0.15 | -4.09 ± 0.24
30 | AGGAAGCAAUAUUACGACAA | -1.49 ± 0.14 | -1.66 ± 0.12
31 | AGGAAGCAAUAUUACGACGU | 0.213 ± 0.076 | 0.0515 ± 0.072
32 | AGGAAGCAAUAUUACGAGUU | -1.03 ± 0.11 | -3.11 ± 0.12
33 | AGGAAGCAAUAUUACGAUAG | -1.55 ± 0.38 | -3.02 ± 0.28
34 | AGGAAGCAAUAUUACGCAAG | -1.45 ± 0.13 | -3.11 ± 0.22
35 | AGGAAGCAAUAUUACGCAAU | -2 ± 0.21 | -2.58 ± 0.25
36 | AGGAAGCAAUAUUACGCAGC | -1.47 ± 0.31 | -3.55 ± 0.33
37 | AGGAAGCAAUAUUACGCAGG | -2.21 ± 0.3 | -3.16 ± 0.25
38 | AGGAAGCAAUAUUACGCCGG | -0.612 ± 0.23 | -0.87 ± 0.17
39 | AGGAAGCAAUAUUACGCCUC | -0.418 ± 0.46 | -2.44 ± 0.44
40 | AGGAAGCAAUAUUACGCCUG | 0.257 ± 0.17 | -1.15 ± 0.14
41 | AGGAAGCAAUAUUACGCGAU | -2.11 ± 0.25 | -3.28 ± 0.28
42 | AGGAAGCAAUAUUACGCGCU | -0.788 ± 0.17 | -1.01 ± 0.13
43 | AGGAAGCAAUAUUACGCUCC |  | -1.87 ± 0.31
